{"source": "paper doi:10.1101/2025.06.28.661730", "target": "complement receptor 2 (CR2, CD21) on human follicular dendritic cells (human (endogenous in tonsil FDCs)) (UniProt P20023)", "sequence (P20023 21-1033)": "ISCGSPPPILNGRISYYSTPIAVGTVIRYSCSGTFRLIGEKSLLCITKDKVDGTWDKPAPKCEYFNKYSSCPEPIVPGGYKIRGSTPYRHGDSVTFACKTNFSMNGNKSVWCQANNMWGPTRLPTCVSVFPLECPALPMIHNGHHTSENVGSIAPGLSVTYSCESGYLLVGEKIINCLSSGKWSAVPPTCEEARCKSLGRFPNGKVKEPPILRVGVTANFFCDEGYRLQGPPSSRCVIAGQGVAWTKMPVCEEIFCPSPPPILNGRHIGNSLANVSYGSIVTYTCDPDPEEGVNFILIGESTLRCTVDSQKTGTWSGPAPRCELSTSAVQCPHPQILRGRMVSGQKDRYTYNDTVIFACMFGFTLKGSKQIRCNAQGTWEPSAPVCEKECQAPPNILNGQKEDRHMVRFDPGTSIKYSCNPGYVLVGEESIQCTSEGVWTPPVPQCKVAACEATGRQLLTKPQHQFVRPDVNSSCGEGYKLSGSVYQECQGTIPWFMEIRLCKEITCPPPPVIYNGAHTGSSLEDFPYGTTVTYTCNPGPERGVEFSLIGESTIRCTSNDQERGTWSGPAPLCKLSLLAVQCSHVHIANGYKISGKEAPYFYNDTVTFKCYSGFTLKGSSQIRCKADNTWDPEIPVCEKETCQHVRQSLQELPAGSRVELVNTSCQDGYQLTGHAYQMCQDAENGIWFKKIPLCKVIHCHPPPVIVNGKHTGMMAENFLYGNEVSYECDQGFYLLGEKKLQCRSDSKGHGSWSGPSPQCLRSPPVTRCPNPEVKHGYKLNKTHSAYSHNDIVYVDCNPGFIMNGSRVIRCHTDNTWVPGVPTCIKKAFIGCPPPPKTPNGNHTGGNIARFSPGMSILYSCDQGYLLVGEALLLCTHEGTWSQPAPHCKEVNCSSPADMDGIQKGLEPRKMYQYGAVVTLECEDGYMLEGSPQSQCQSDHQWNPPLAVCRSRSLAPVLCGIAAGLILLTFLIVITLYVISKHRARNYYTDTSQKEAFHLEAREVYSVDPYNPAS"}
{"substance": "ConM SOSIP.v7 Env trimer fused to human complement fragment C3d (from UniProt P01024 1002-1303)", "values": [{"measurement": "Ca2+ flux of PGT121-expressing Ramos B cells, AUC at 0.01 µg/ml Env-equivalent (tested at 10, 1, 0.1, 0.01 and 0.001 µg/ml); ConM Env alone gave AUC 5", "result": 442, "unit": "AUC"}]}
